Results as given in EP4350345A2.
Residue numbers refer to the chain shown, from its start. Names may count otherwise. One block for each binder: values may come before it.

Key:
[1] = biological target: serum sample IHUS#B09032311A1; experiment: ECL bridging assay, drug displacement; competitor of labelled ISV SEQ ID NO:1
[2] = biological target: antibodies against ISV in serum sample IHUS#B09032311A3; experiment: as above
[3] = biological target: antibodies against ISV in serum sample IHUS#B09032311A20; experiment: as above
[4] = biological target: affinity purified antibody IHuP#002-001-ABL-08; experiment: ECL bridging/competition assay, 10 ug/ml ISV with 400 ng/ml analytical antibody; competitor of labelled ISV

% reduction [1]: 6%
ECLU confirmatory assay [1]: 58 ECLU
% reduction [2]: 90%
ECLU confirmatory assay [2]: 228 ECLU
% reduction [3]: 97%
ECLU confirmatory assay [3]: 570 ECLU
% reduction [4]: 91.4%
ECLU confirmatory assay [4]: 251 ECLU
B1: Example 1C: (A14P,R39Q,K83R,T91Y,Q108L) (VHH)
VHH: EVQLVESGGGLVQPGGSLRLSCAASGRTFNNYAMGWFRQAPGKEREFVAAITRSGVRSGVSAIYGDSVKDRFTISRDNAKNTLYLQMNSLRPEDTAVYYCAASAIGSGALRRFEYDYSGQGTLVTVSS

% reduction [1]: 8%
ECLU confirmatory assay [1]: 57 ECLU
% reduction [2]: 93%
ECLU confirmatory assay [2]: 156 ECLU
% reduction [3]: 97%
ECLU confirmatory assay [3]: 628 ECLU
% reduction [4]: 89.1%
ECLU confirmatory assay [4]: 319 ECLU
B2: Example 1C: (A14P,K83R,Q108L) (VHH)
VHH: B1 VHH with Q39R, Y99T
